Measurements as given in patent US7572770B2, “Use of an interleukin 1 receptor antagonist and/or pyrrolidinedithiocarbamate for the treatment or prophylaxis of type 2 diabetes” (University of Zurich, priority 2002, dated 2009).
pKd: −log10 of the molar value.

What was measured:
[1] = molecular target: T1, type I IL-1R (Homo sapiens, UniProt P14778); settings: read-out: Kd, binding to type I IL-1R; cited from earlier work
T1 sequence (P14778 18-569): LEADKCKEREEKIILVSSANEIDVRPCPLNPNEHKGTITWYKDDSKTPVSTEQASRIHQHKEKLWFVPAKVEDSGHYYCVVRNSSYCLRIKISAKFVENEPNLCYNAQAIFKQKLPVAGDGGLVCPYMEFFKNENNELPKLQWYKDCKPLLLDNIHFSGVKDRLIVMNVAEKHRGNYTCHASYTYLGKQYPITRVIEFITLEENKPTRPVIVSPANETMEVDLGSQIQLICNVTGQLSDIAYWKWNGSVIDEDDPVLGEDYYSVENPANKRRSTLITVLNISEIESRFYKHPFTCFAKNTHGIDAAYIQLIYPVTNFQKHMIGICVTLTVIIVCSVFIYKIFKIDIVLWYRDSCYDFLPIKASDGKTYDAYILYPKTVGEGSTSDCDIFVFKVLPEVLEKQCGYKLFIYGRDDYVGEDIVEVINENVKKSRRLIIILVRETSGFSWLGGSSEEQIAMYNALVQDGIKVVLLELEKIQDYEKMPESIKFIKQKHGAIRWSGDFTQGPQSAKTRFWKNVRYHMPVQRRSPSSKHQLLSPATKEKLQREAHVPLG

[2] = cited from earlier work
[3] = molecular target: T2, type II IL-1R (Homo sapiens, UniProt P27930); settings: read-out: Kd, binding to type II IL-1R; cited from earlier work
T2 sequence (P27930 14-398): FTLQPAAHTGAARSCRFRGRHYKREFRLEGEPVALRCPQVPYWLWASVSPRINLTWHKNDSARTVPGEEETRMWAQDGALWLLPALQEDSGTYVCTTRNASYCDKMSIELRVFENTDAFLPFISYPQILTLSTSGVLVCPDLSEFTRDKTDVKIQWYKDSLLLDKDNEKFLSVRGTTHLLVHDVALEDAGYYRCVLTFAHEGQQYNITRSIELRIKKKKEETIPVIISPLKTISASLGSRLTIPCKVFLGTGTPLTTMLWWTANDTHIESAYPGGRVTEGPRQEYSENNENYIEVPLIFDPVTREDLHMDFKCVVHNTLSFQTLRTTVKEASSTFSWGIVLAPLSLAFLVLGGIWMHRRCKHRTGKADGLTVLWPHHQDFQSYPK

[4] = system: NF-κB; assay: NF-κB activation in human islets; type: cell-based; settings: 33.3 mM glucose with IL-1Ra 500 ng/ml, 44 hours
Description: Western blot analysis. Islets were cultured in a culture medium in non-adherent plastic dishes. One day after isolation, the medium was changed and groups of 200 islets were incubated for 44 hours in culture medium containing 5.5 or 33.3 mM glucose without or with 2 ng/ml IL-1β or 500 ng/ml IL-1Ra. At the end of the incubations, islets were washed in PBS, suspended in 50 μl sample buffer containing 125 mM Tris-HCl, pH 6.8, 4% SDS, 10% glycerol, 0.3% bromphenol blue, 1.8% β-mercaptoethanol and boiled for 5 min. Equivalent amounts of each treatment group were run on 15% SDS polyacrylamide gels. […] Intensity of bands was analyzed using Multianalyst™ (Bio Rad, Laboratories inc., Hercules, Calif.). […] Activation of NF-κB complex was quantified with an ELISA-based Kit, using attached oligonucleotides binding to a NF-κB consensus site and detected by an anti-p65 or p50 subunit antibody, according to the manufacturer's instructions (Trans-AM™ NFκB, Active Motif). […] Sections were incubated with mouse anti-NF-κB (p65) (1:50 dilution) or rabbit anti-IκB (1:50 dilution, C-21, Santa Cruz) antibodies, detected by donkey anti-mouse or anti-rabbit Cy3 conjugated antibodies and double stained for insulin as described above.

[5] = system: IL-1β; assay: IL-1β release from human blood monocytes exposed to leptin; type: cell-based
Description: Human blood monocytes were isolated as described previously (37), cultured in RPMI 1640 (Invitrogen) containing 100 U/ml penicillin, 100 μg/ml streptomycin and 10% fetal calf serum and exposed to 10 or 500 nM leptin.
Cytokine release. Cytokine release was evaluated in the culture medium collected before the termination of each experiment using human IL-1β and IL-1Ra ELISA kits (R&D Systems Inc.).

Substance: Interleukin 1 receptor antagonist [IL-1Ra]
- pKd [1]: 9.70
- patients with infections ([2]; human, in vivo): 40%
- patients with serious infections ([2]; human, in vivo): 1.8%
- patients developing neutropenia (absolute neutrophil count 1×10^9/l or less) ([2]; placebo-controlled trials, rheumatoid arthritis): 0.3%
- patients requiring discontinuation of treatment (injection site reactions) ([2]; rheumatoid arthritis patients): up to 5%
- most commonly reported adverse effects ([2]; subcutaneous treatment, rheumatoid arthritis patients): Injection site reactions
- pKd [3]: 8.15
- glucose-induced increase in NF-κB activity [4]: prevented

Substance: leptin: rh leptin (PeproTech); protein encoded by the ob gene
- IL-1β release from peripheral blood monocytes ([5]; 15 hours): increased IL-1β release
- IL-1β release from peripheral blood monocytes ([5]; 48 hours): did not significantly affect IL-1β release
